Data as given in publication PMC11982570 (Scientific Reports, 2025).

B1: 103.2 mAb (antibody, V domains shown)
VH: QVQLQQSGAEVVRPGTSVKVSCKASGYAFTSYLIHWIKQRPGQGLEWIGVINPRSGDSHYNEKFKDRTTLTADQSSSTAYMQLSSLTSDDSAVYFCARSDYGAYWGQGTLVTVSA
VL: DIVLTQSPVTLSVTPGDSVSLSCRASQSISNNLHWYRQKSHESPRLLIKYASQSIFGIPSRFSGSGSGTEFTLSINSVETEDFGIYFCQQSNSWPHTFGTGTKLELK
B2: 103.2^15 mAb hinge variant (antibody, V domains shown)
VH: QVQLQQSGAEVVRPGTSVKVSCKASGYAFTSYLIHWIKQRPGQGLEWIGVINPRSGDSHYNEKFKDRTTLTADQSSSTAYMQLSSLTSDDSAVYFCARSDYGAYWGQGTLVTVSA
VL: DIVLTQSPVTLSVTPGDSVSLSCRASQSISNNLHWYRQKSHESPRLLIKYASQSIFGIPSRFSGSGSGTEFTLSINSVETEDFGIYFCQQSNSWPHTFGTGTKLELK
B3: 103.2^5 mAb hinge variant (antibody, V domains shown)
VH: QVQLQQSGAEVVRPGTSVKVSCKASGYAFTSYLIHWIKQRPGQGLEWIGVINPRSGDSHYNEKFKDRTTLTADQSSSTAYMQLSSLTSDDSAVYFCARSDYGAYWGQGTLVTVSA
VL: DIVLTQSPVTLSVTPGDSVSLSCRASQSISNNLHWYRQKSHESPRLLIKYASQSIFGIPSRFSGSGSGTEFTLSINSVETEDFGIYFCQQSNSWPHTFGTGTKLELK
B4: 103.2^10 mAb hinge variant (antibody, V domains shown)
VH: QVQLQQSGAEVVRPGTSVKVSCKASGYAFTSYLIHWIKQRPGQGLEWIGVINPRSGDSHYNEKFKDRTTLTADQSSSTAYMQLSSLTSDDSAVYFCARSDYGAYWGQGTLVTVSA
VL: DIVLTQSPVTLSVTPGDSVSLSCRASQSISNNLHWYRQKSHESPRLLIKYASQSIFGIPSRFSGSGSGTEFTLSINSVETEDFGIYFCQQSNSWPHTFGTGTKLELK
B5: 103.2^30 mAb hinge variant (antibody, V domains shown)
VH: QVQLQQSGAEVVRPGTSVKVSCKASGYAFTSYLIHWIKQRPGQGLEWIGVINPRSGDSHYNEKFKDRTTLTADQSSSTAYMQLSSLTSDDSAVYFCARSDYGAYWGQGTLVTVSA
VL: DIVLTQSPVTLSVTPGDSVSLSCRASQSISNNLHWYRQKSHESPRLLIKYASQSIFGIPSRFSGSGSGTEFTLSINSVETEDFGIYFCQQSNSWPHTFGTGTKLELK

target: Biotinylated BTN3A1 ectodomain + avitag (Homo sapiens, UniProt O00481, biotin on the C-terminal BirA biotinylation sequence); test: BLI
Sequence (O00481 whole entry, looked up, the tested form may be a part): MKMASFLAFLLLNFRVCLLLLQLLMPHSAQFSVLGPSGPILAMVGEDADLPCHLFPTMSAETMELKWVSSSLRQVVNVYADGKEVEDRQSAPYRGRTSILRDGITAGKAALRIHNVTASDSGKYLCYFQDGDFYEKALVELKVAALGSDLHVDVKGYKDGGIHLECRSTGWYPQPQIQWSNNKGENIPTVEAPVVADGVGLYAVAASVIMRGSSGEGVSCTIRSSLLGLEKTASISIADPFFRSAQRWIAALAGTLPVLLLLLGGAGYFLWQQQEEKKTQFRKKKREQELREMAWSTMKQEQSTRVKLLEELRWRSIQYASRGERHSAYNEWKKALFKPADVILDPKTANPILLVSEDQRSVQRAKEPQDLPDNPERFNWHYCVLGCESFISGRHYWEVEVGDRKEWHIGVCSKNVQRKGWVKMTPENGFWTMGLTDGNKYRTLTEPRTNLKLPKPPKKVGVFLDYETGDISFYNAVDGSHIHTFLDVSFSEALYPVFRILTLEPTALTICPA

Binding result, binds:
B1
B2
B3
B4
B5
